Results published in paper PMC9997507.

Molecular target: ADAM23-Fc (UniProt Q9R1V7)
Assay: pull-down; as a2 but with co-expressed LGI3 (LGI3V5/His plasmid); secreted proteins precipitated from conditioned medium with Protein A or Ni-NTA beads; Western blot, band densities quantified in triplicate for ADAM23Fc with ADAM23γHis

- fold change of the interaction with LGI3 against without LGI3: 2.5 fold
Substance: ADAM23γV5/His (domain or fragment)
